# B1: GST-tagged fragment L7 of human PDIP46/SKAR (domain or fragment)
# chain: NKEEPPKELPAAEPVLSPLEGTKMTVNNLHPRVTEEDIVELFCVCGALKRARLVHPGVAEVVFVKKDDAITAYKKYNNRCLDGQPMKCNLHMNGNVITSDQPILLRLSDSPSMKKESELPRRVNSASSSNPPAEVDPDTILKALFKSSGASVTTQPTEFKIKL
# notes: fragment L7 of human PDIP46/SKAR comprising residues 259-421, expressed from pGEX-4T-1/PDIP46/SKAR[L7]; also called GST-PDIP46/SKAR[L7]; PDIP46/SKAR[L7]; source: E. coli XL1 Blue MRF', batch purified on Glutathione-Agarose beads
# Molecular target: T1, FLAG-tagged wild-type human ERH (enhancer of rudimentary homolog) (human, UniProt P84090 1-104)
# T1 construct: wild-type human ERH, expressed from pQE30/ERH-FLAG (formerly pQE30/ER-FLAG); also called ERH-FLAG; wild-type ERH
# Assay: pull-down; GST-PDIP46/SKAR[L7]- or GST-Ciz1[B]-coated Glutathione-Agarose beads incubated with equal amounts of purified FLAG-tagged ERH forms; binding buffer 20 mM HEPES pH 7.4, 50 mM NaCl, 75 mM KCl, 1 mM DTT, 1 mM EDTA, 10% glycerol, 0.05% Triton X-100; western blotting with anti-FLAG antibody
# Conditions: both partners purified
binder,measurement,value
B1,binding result,binds

# Reference: paper PMC3755989, “Identification of Amino Acid Residues of ERH Required for Its Recruitment to Nuclear Speckles and Replication Foci in HeLa Cells” (PLoS ONE, 2013)
